Results reported in article PMC9514091, “Discovery of the first PD-1 ligand encoded by a pathogen” (Frontiers in Immunology, 2022).

Target: T1, host PD-1-Fc fusion protein ( ('host'; the dolphin PD-1 of …)
T1 chain: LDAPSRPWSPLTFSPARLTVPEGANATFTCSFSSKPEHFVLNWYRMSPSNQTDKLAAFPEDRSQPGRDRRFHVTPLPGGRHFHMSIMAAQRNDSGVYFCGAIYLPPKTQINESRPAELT
Assay: SPR; Biacore T200, 25°C; PD-1-Fc amine-coupled to a CM4 chip (acetate buffer pH 6.5); De2-Fc or PD-L1-Fc as analytes at 0-400 nM in PBS with 0.05% Tween, 30 µL/min; 1:1 Langmuir model
Conditions: both partners purified

B1: host PD-L1-Fc fusion protein (Fc fusion)
chain: FTITVPKDLYVVEYGSNVTLECRFPVDKQLNLLALVVYWEMEDKKIIQFVNGEEDLNVQHSSYNQRALLLKNQLPLGKAALQITDVKLQDAGIYCCLISYGGADYKRITLKVNASYRKINQTISVDPVTSEHELMCQAEGYPEAEVIWTSSDHRVLSGKTTITSSKREEKLFNVTSTLRINTTANEIFYCIFRRLGHEENSTAELV
B1 was tested. Which Kd did it give?
The Kd was 6.2 nM.
